In patent publication US20200270325A1 (Merck Sharp & Dohme, published 2020):
Numbered stars: 1 amine (or outer) side, 2 acyl side, 3 side chain; on linkers, the order of the positions; unused ones are H or OH. Square brackets hold non-standard residues; d marks the D form. Side chains are listed from the residue outwards. Ends that are not written are not given here. * marks the point of attachment. Phe(4-CH2NH2) = NCc1ccc(C[C@H](N)C(=O)O)cc1; C18 diacid = O=C(O)CCCCCCCCCCCCCCCCC(=O)*; γGlu = O=C(O)[C@H](CCC(=O)[*:2])N[*:1]; Met(O2) = CS(=O)(=O)CC[C@H](N)C(=O)O; AEEA = NCCOCCOCC(=O)O; Aib = CC(C)(N)C(=O)O; C16 = lipid (C16)

B1: TP594 (peptide)
peptide: HXQGTFTSDYSKYLDARAAXXFVQWLXDT
modifications: Aib (U) at 2; K(PEG2PEG2γEC20-OH) at 20; αMD at 21; L-methionine sulphone (2) at 27; C-terminal amide
B2: TP587 (peptide)
peptide: H[Aib]QGTFTSDYSKYLDERAA[Phe(4-CH2NH2)]([AEEA-AEEA-γGlu-C18 diacid])DFVQWLLKT-NH2
modifications: N-terminus assumed
SMILES: CC(C)C[C@H](NC(=O)[C@H](Cc1ccc(O)cc1)NC(=O)[C@H](CCCCN)NC(=O)[C@H](CO)NC(=O)[C@H](Cc1ccc(O)cc1)NC(=O)[C@H](CC(=O)O)NC(=O)[C@H](CO)NC(=O)[C@@H](NC(=O)[C@H](Cc1ccccc1)NC(=O)[C@@H](NC(=O)CNC(=O)[C@H](CCC(N)=O)NC(=O)C(C)(C)NC(=O)[C@@H](N)Cc1c[nH]cn1)[C@@H](C)O)[C@@H](C)O)C(=O)N[C@@H](CC(=O)O)C(=O)N[C@@H](CCC(=O)O)C(=O)N[C@@H](CCCNC(=N)N)C(=O)N[C@@H](C)C(=O)N[C@@H](C)C(=O)N[C@@H](Cc1ccc(CNC(=O)COCCOCCNC(=O)COCCOCCNC(=O)CC[C@H](NC(=O)CCCCCCCCCCCCCCCCC(=O)O)C(=O)O)cc1)C(=O)N[C@@H](CC(=O)O)C(=O)N[C@@H](Cc1ccccc1)C(=O)N[C@H](C(=O)N[C@@H](CCC(N)=O)C(=O)N[C@@H](Cc1c[nH]c2ccccc12)C(=O)N[C@@H](CC(C)C)C(=O)N[C@@H](CC(C)C)C(=O)N[C@@H](CCCCN)C(=O)N[C@H](C(N)=O)[C@@H](C)O)C(C)C
B3: TP602 (peptide)
peptide: H[Aib]QGTFTSDYSKYLDARAAQDFVQWL[Met(O2)]K([AEEA-AEEA-γGlu-C18 diacid])T-NH2
modifications: N-terminus assumed
SMILES: CC(C)C[C@H](NC(=O)[C@H](Cc1ccc(O)cc1)NC(=O)[C@H](CCCCN)NC(=O)[C@H](CO)NC(=O)[C@H](Cc1ccc(O)cc1)NC(=O)[C@H](CC(=O)O)NC(=O)[C@H](CO)NC(=O)[C@@H](NC(=O)[C@H](Cc1ccccc1)NC(=O)[C@@H](NC(=O)CNC(=O)[C@H](CCC(N)=O)NC(=O)C(C)(C)NC(=O)[C@@H](N)Cc1c[nH]cn1)[C@@H](C)O)[C@@H](C)O)C(=O)N[C@@H](CC(=O)O)C(=O)N[C@@H](C)C(=O)N[C@@H](CCCNC(=N)N)C(=O)N[C@@H](C)C(=O)N[C@@H](C)C(=O)N[C@@H](CCC(N)=O)C(=O)N[C@@H](CC(=O)O)C(=O)N[C@@H](Cc1ccccc1)C(=O)N[C@H](C(=O)N[C@@H](CCC(N)=O)C(=O)N[C@@H](Cc1c[nH]c2ccccc12)C(=O)N[C@@H](CC(C)C)C(=O)N[C@@H](CCS(C)(=O)=O)C(=O)N[C@@H](CCCCNC(=O)COCCOCCNC(=O)COCCOCCNC(=O)CC[C@H](NC(=O)CCCCCCCCCCCCCCCCC(=O)O)C(=O)O)C(=O)N[C@H](C(N)=O)[C@@H](C)O)C(C)C
B4: TP595 (peptide)
peptide: H[Aib]QGTFFSDYSKYLDARAAK([AEEA-AEEA-γGlu-C18 diacid])DFVQWL[Met(O2)]DT-NH2
modifications: N-terminus assumed
SMILES: CC(C)C[C@H](NC(=O)[C@H](Cc1ccc(O)cc1)NC(=O)[C@H](CCCCN)NC(=O)[C@H](CO)NC(=O)[C@H](Cc1ccc(O)cc1)NC(=O)[C@H](CC(=O)O)NC(=O)[C@H](CO)NC(=O)[C@H](Cc1ccccc1)NC(=O)[C@H](Cc1ccccc1)NC(=O)[C@@H](NC(=O)CNC(=O)[C@H](CCC(N)=O)NC(=O)C(C)(C)NC(=O)[C@@H](N)Cc1c[nH]cn1)[C@@H](C)O)C(=O)N[C@@H](CC(=O)O)C(=O)N[C@@H](C)C(=O)N[C@@H](CCCNC(=N)N)C(=O)N[C@@H](C)C(=O)N[C@@H](C)C(=O)N[C@@H](CCCCNC(=O)COCCOCCNC(=O)COCCOCCNC(=O)CC[C@H](NC(=O)CCCCCCCCCCCCCCCCC(=O)O)C(=O)O)C(=O)N[C@@H](CC(=O)O)C(=O)N[C@@H](Cc1ccccc1)C(=O)N[C@H](C(=O)N[C@@H](CCC(N)=O)C(=O)N[C@@H](Cc1c[nH]c2ccccc12)C(=O)N[C@@H](CC(C)C)C(=O)N[C@@H](CCS(C)(=O)=O)C(=O)N[C@@H](CC(=O)O)C(=O)N[C@H](C(N)=O)[C@@H](C)O)C(C)C
B5: TP596 (peptide)
peptide: H[Aib]QGTFLSDYSKYLDARAAK([AEEA-AEEA-γGlu-C18 diacid])DFVQWL[Met(O2)]DT-NH2
modifications: N-terminus assumed
SMILES: CC(C)C[C@H](NC(=O)[C@H](Cc1ccc(O)cc1)NC(=O)[C@H](CCCCN)NC(=O)[C@H](CO)NC(=O)[C@H](Cc1ccc(O)cc1)NC(=O)[C@H](CC(=O)O)NC(=O)[C@H](CO)NC(=O)[C@H](CC(C)C)NC(=O)[C@H](Cc1ccccc1)NC(=O)[C@@H](NC(=O)CNC(=O)[C@H](CCC(N)=O)NC(=O)C(C)(C)NC(=O)[C@@H](N)Cc1c[nH]cn1)[C@@H](C)O)C(=O)N[C@@H](CC(=O)O)C(=O)N[C@@H](C)C(=O)N[C@@H](CCCNC(=N)N)C(=O)N[C@@H](C)C(=O)N[C@@H](C)C(=O)N[C@@H](CCCCNC(=O)COCCOCCNC(=O)COCCOCCNC(=O)CC[C@H](NC(=O)CCCCCCCCCCCCCCCCC(=O)O)C(=O)O)C(=O)N[C@@H](CC(=O)O)C(=O)N[C@@H](Cc1ccccc1)C(=O)N[C@H](C(=O)N[C@@H](CCC(N)=O)C(=O)N[C@@H](Cc1c[nH]c2ccccc12)C(=O)N[C@@H](CC(C)C)C(=O)N[C@@H](CCS(C)(=O)=O)C(=O)N[C@@H](CC(=O)O)C(=O)N[C@H](C(N)=O)[C@@H](C)O)C(C)C
B6: TP599 (peptide)
peptide: H[Aib]QGTFTSDYSKYLDALAAK([AEEA-AEEA-γGlu-C18 diacid])DFVQWL[Met(O2)]DT-NH2
modifications: N-terminus assumed
SMILES: CC(C)C[C@H](NC(=O)[C@H](C)NC(=O)[C@H](CC(=O)O)NC(=O)[C@H](CC(C)C)NC(=O)[C@H](Cc1ccc(O)cc1)NC(=O)[C@H](CCCCN)NC(=O)[C@H](CO)NC(=O)[C@H](Cc1ccc(O)cc1)NC(=O)[C@H](CC(=O)O)NC(=O)[C@H](CO)NC(=O)[C@@H](NC(=O)[C@H](Cc1ccccc1)NC(=O)[C@@H](NC(=O)CNC(=O)[C@H](CCC(N)=O)NC(=O)C(C)(C)NC(=O)[C@@H](N)Cc1c[nH]cn1)[C@@H](C)O)[C@@H](C)O)C(=O)N[C@@H](C)C(=O)N[C@@H](C)C(=O)N[C@@H](CCCCNC(=O)COCCOCCNC(=O)COCCOCCNC(=O)CC[C@H](NC(=O)CCCCCCCCCCCCCCCCC(=O)O)C(=O)O)C(=O)N[C@@H](CC(=O)O)C(=O)N[C@@H](Cc1ccccc1)C(=O)N[C@H](C(=O)N[C@@H](CCC(N)=O)C(=O)N[C@@H](Cc1c[nH]c2ccccc12)C(=O)N[C@@H](CC(C)C)C(=O)N[C@@H](CCS(C)(=O)=O)C(=O)N[C@@H](CC(=O)O)C(=O)N[C@H](C(N)=O)[C@@H](C)O)C(C)C
B7: TP577 (peptide)
peptide: HXQGTFTSDYSKYLDSRAAXDFVQWLXDT
modifications: Aib (U) at 2; K(PEG2PEG2γEC20-OH) at 20; L-methionine sulphone (2) at 27; C-terminal amide
B8: TP583 (peptide)
peptide: H[Aib]QGTFTSDYSKYLDARAAQDFV[Phe(4-CH2NH2)]([AEEA-AEEA-γGlu-C18 diacid])WLLDT-NH2
modifications: N-terminus assumed
SMILES: CC(C)C[C@H](NC(=O)[C@H](Cc1ccc(O)cc1)NC(=O)[C@H](CCCCN)NC(=O)[C@H](CO)NC(=O)[C@H](Cc1ccc(O)cc1)NC(=O)[C@H](CC(=O)O)NC(=O)[C@H](CO)NC(=O)[C@@H](NC(=O)[C@H](Cc1ccccc1)NC(=O)[C@@H](NC(=O)CNC(=O)[C@H](CCC(N)=O)NC(=O)C(C)(C)NC(=O)[C@@H](N)Cc1c[nH]cn1)[C@@H](C)O)[C@@H](C)O)C(=O)N[C@@H](CC(=O)O)C(=O)N[C@@H](C)C(=O)N[C@@H](CCCNC(=N)N)C(=O)N[C@@H](C)C(=O)N[C@@H](C)C(=O)N[C@@H](CCC(N)=O)C(=O)N[C@@H](CC(=O)O)C(=O)N[C@@H](Cc1ccccc1)C(=O)N[C@H](C(=O)N[C@@H](Cc1ccc(CNC(=O)COCCOCCNC(=O)COCCOCCNC(=O)CC[C@H](NC(=O)CCCCCCCCCCCCCCCCC(=O)O)C(=O)O)cc1)C(=O)N[C@@H](Cc1c[nH]c2ccccc12)C(=O)N[C@@H](CC(C)C)C(=O)N[C@@H](CC(C)C)C(=O)N[C@@H](CC(=O)O)C(=O)N[C@H](C(N)=O)[C@@H](C)O)C(C)C

Biological target: human GLP-1 receptor (GLP1R) (human, UniProt P43220 24-463)
Test: cell-based or functional assay

Binder | GLP1R EC50 human [nM]
B1 | 2.6
HXQGTFTSDXSKYLDARAAQDFVQWLLDT (D-Ser (s) at 2; Nle(1,2,3-triazole-4-γE-C16) at 10; C-terminal amide) [TP830] | 0.22
B2 | 0.41
B3 | 0.36
B4 | > 20
H[Aib]QGTFTSDK([γGlu-γGlu-C16])SKYLDARAAK([AEEA-AEEA-γGlu-C18 diacid])DFVQWL[Met(O2)]DT-NH2 [TP601] | 8.5
H[Aib]QGTFTSDYSKYLD[Aib]RAAQDFVK([AEEA-AEEA-γGlu-C20‑OH])WL[Met(O2)]DT-NH2 [TP576] | 1.88
B5 | > 20
H[dS]QGTFTSDYSKYLE[Aib]RAAK([AEEA-AEEA-γGlu-C20‑OH])DFVQWLL[Aib]TK-{γGlu-NH2} [TP579] | 14.7
B6 | 2.21
B7 | 1.67
H[Aib]QGTFTSDYSKYLDERAA[Phe(4-CH2NH2)]([AEEA-AEEA-γGlu-C20‑OH])DFVQWLLKT-NH2 [TP586] | 1.23
HXQGTFTSDXSKYLDARAAQDFVQWLLDT (D-Ser (s) at 2; Nle(1,2,3-triazole-4-C4-Lys-C16) at 10; C-terminal amide) [TP831] | 0.08
B8 | 0.74

Biological target: human Glucagon receptor (GCGR) (human, UniProt P47871 26-477)
Test: cell-based or functional assay

Chain of human Glucagon receptor (GCGR) (P47871 26-477): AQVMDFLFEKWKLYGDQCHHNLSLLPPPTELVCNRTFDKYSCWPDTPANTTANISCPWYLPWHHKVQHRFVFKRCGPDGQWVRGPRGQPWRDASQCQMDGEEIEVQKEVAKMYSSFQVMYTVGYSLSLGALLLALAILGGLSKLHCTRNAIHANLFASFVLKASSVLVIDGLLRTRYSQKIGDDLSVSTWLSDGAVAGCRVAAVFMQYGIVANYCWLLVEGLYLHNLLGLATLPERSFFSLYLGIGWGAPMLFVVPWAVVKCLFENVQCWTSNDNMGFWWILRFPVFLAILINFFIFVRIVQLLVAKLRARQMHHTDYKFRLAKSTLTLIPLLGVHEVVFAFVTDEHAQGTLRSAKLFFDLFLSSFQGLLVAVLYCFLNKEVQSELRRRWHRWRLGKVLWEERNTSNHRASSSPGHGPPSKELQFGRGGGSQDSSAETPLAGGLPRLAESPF

Binder | GCGR EC50 human [nM]
B1 | 4.95
HXQGTFTSDXSKYLDARAAQDFVQWLLDT (D-Ser (s) at 2; Nle(1,2,3-triazole-4-γE-C16) at 10; C-terminal amide) [TP830] | 0.14
B2 | 2.49
B3 | 2.17
B4 | 0.4
H[Aib]QGTFTSDK([γGlu-γGlu-C16])SKYLDARAAK([AEEA-AEEA-γGlu-C18 diacid])DFVQWL[Met(O2)]DT-NH2 [TP601] | 1.8
H[Aib]QGTFTSDYSKYLD[Aib]RAAQDFVK([AEEA-AEEA-γGlu-C20‑OH])WL[Met(O2)]DT-NH2 [TP576] | 1.45
B5 | 0.35
H[dS]QGTFTSDYSKYLE[Aib]RAAK([AEEA-AEEA-γGlu-C20‑OH])DFVQWLL[Aib]TK-{γGlu-NH2} [TP579] | > 19.9
B6 | 3.47
B7 | 4.54
H[Aib]QGTFTSDYSKYLDERAA[Phe(4-CH2NH2)]([AEEA-AEEA-γGlu-C20‑OH])DFVQWLLKT-NH2 [TP586] | 4.95
HXQGTFTSDXSKYLDARAAQDFVQWLLDT (D-Ser (s) at 2; Nle(1,2,3-triazole-4-C4-Lys-C16) at 10; C-terminal amide) [TP831] | 0.14
B8 | 6.37
